From article PMC8567202, “Phosphoinositide-binding activity of Smad2 is essential for its function in TGF-β signaling” (The Journal of Biological Chemistry, 2021)
Where a chain is given by its changes, count along the chain named. Names and notes keep the numbering of the source.

What was measured:
[1] = SPR membrane binding to POPC/POPS/PI(4,5)P2 vesicles; details: for Kd: L1 chip, 23 °C, 20 mM Tris, pH 7.4, 0.16 M NaCl, average ±S.D., n = 3, read-out: Kd for lipid binding, PC/PS/PI(4,5)P2
Text: It has been generally thought that Smad2 and Smad3 are targeted to the activated TGF-β signaling complex by direct interaction with TβRI ([1], [2]) or via SARA ([7]). However, it has been shown that many cytosolic proteins that are targeted to membrane proteins or membrane-anchored signaling complexes have affinity for membrane lipids ([14]), phosphoinositides (PtdInsPs) in particular, and that their membrane recruitment is mediated by coincident lipid–protein and protein–protein interactions ([15], [16]). For most of these proteins, their PtdInsP specificity directs their membrane targeting behaviors: e.g., PI(4,5)P2-specific proteins are recruited to PM where the highest concentration of PI(4,5)P2 is found, whereas PI(3)P-specific proteins are targeted to PI(3)P-rich EEs ([17], [18]). To resolve uncertainty about the functional location of the activated TGF-β signaling complex, we thus explored the possibility that lipid-binding activity of Smad2 may play a role in specific targeting of Smad2 to the active TGF-β receptor complex either at the PM or at EEs. Lipid-binding activity of Smad proteins has not been reported to date. We thus measured the binding of bacterially expressed Smad2 to large unilamellar vesicles (LUVs) containing various lipids by surface plasmon resonance (SPR) analysis ([19], [20]). Lipid selectivity determined by SPR analysis is typically reported as the relative resonance unit (RU) values for different lipids at a given protein concentration ([21], [22]). Although simple and intuitive, this type of analysis can sometimes yield misleading and erroneous results because some proteins show widely different RU values when bound to different lipid surfaces. Thus, a more reliable parameter that represents the fraction of the membrane bound protein molecules at a given protein concentration would be a normalized value of RU/RUmax where RUmax indicates the maximal RU value when a given lipid surface is saturated with the protein molecules. We thus estimated RUmax for different lipid species by employing the highest protein concentration experimentally feasible (e.g., 1 μM) and determined RU/RUmax for different lipids at the protein concentration that allows robust comparison (e.g., 100 nM). Once the lipid selectivity has been determined by this semiquantitative approach, we then rigorously determined and compared Kd values for selected lipids for more accurate quantitative determination of lipid selectivity.
Figure 1 Membrane-binding properties of Smad2 FL protein and MH2 domain determined by SPR analysis.A, PtdInsP selectivity of Smad2-FL determined using POPC/POPS/PtdInsP (77:20:3 in mole ratio) LUVs coated on the L1 sensor chip. The protein concentration was 100 nM. PIP3 indicates PI(3,4,5)P3. B, determination of Kd for binding of Smad2 FL to different LUVs. The protein concentration was varied from 0 to 500 nM. C, PI(4,5)P2 concentration dependence of membrane binding of Smad2-FL determined using POPC/POPS/PI(4,5)P2 (77-x:20:x, x = 0–5 mol%) LUVs. The protein concentration was 100 nM. D, PtdInsP selectivity of the Smad2 MH2 domain determined using POPC/POPS/PtdInsP (77:20:3 in mole ratio) LUVs. The protein concentration was 100 nM. Normalized RU values (RU/RUmax) were used for all figures but (C) for more accurate determination of PtdInsP selectivity. RUmax values determined for different vesicles at 1 μM Smad2 were: 280 ± 20 for POPC/POPS/PI(4,5)P2 (77:20:3), 370 ± 10 for POPC/POPS/PI(3,4)P2 (77:20:3), 400 ± 15 for POPC/POPS/PI(3,4,5)P3 (or PIP3) (77:20:3), 400 ± 20 for POPC/POPS/PI(3)P (77:20:3), and 380 ± 20 for POPC/POPS (80:20). Only the association phases of the sensorgrams are shown and used for further analysis. Each set of sensorgrams shown in A and D are representatives of >5 independent measurements. Data points shown in B and C are the average ±S.D. values from triplicate measurements. […]

[2] = test system: Smad2 transcriptional activity; assay: Dual luciferase reporter assay for Smad2 transcriptional activity; assay type: cell-based; details: for Smad2 transcriptional activity after TGF-β stimulation: Smad2-suppressed HeLa cells, luciferase, 10 ng/ml TGF-β for 48 h
Description: Two separate gels were used to accommodate all mutants. An empty vector transfection (vehicle) was used for a negative control for each gel. Glyceraldehyde 3-phosphate dehydrogenase (GAPDH) was used as a gel loading control. Data in A and B are quantified in Fig. S3A. C, TGF-β stimulated (10 ng/ml for 1 h) nuclear translocation of mouse EGFP-WT, -K420A, -W422A, -E425K, -Y426A, and -R427A/R428A transfected into HeLa cells whose endogenous Smad2 was suppressed by siRNA. For Smad2-WT, the effect of PI(4,5)P2 depletion was measured. Arrows indicate nuclear accumulation of EGFP-WT and EGFP-E425K. Scale bars indicate 10 μm. D, quantification of (C). (Inuc/Icyto) was calculated from total nuclear and cytosolic fluorescence intensity values. Blank and black bars indicate values before and after TGF-β stimulation. Error bars indicate S.D. values from >3 measurements (n = 10). E, Smad2 transcriptional activity measured by the luciferase assay. Blank and black bars indicate values before and after TGF-β stimulation. Error bars indicate S.D. values from >3 measurements (n = 10).
HeLa cells were plated on 6-well plates at the density of ∼1.5 × 10^5 and treated with siRNA as described above. The reporter gene containing three TGF-β/activin response element (ARE) coupled with the luciferase gene (pGL2 3ARE-Lux: Addgene) was used for enhanced activity ([55]). On translocation into the nucleus, receptor-activated Smad2 associates with the DNA-binding protein FAST1 to form a transcriptional complex on the ARE of the Mix.2 promoter. After 24 h, the cell media were replaced with fresh media and cells were cotransfected with 375 ng pGL2 3ARE-Lux experimental vector, 37.5 ng pGL4.73[hRluc/SV40] internal control vector (Promega), 337.5 ng FAST1, and 750 ng of pcDNA 3.1 plasmid harboring Smad2 WT or mutant using the jetPRIME transfection system (Polyplus transfection) according to the manufacturer's protocols. After 24 h of transfection, cells were placed in fresh media and stimulated with 10 ng/ml TGF-β for 48 h. Then the cells were washed with phosphate buffer saline, and the dual luciferase reporter assay was performed according to the manufacturer's protocols (Promega). All 3ARE-Luc activity values were normalized using the pGL4.73[hRluc/SV40] values as a reference.

[3] = SPR, POPC/POPS/PI(4,5)P2 (77:20:3)

B1: Smad2-E425K: charge-reversal mutant of full-length Smad2; PI(4,5)P2 and TβRI binding-enhanced (protein)
chain: MSSILPFTPPVVKRLLGWKKSAGGSGGAGGGEQNGQEEKWCEKAVKSLVKKLKKTGRLDELEKAITTQNCNTKCVTIPSTCSEIWGLSTANTVDQWDTTGLYSFSEQTRSLDGRLQVSHRKGLPHVIYCRLWRWPDLHSHHELKAIENCEYAFNLKKDEVCVNPYHYQRVETPVLPPVLVPRHTEILTELPPLDDYTHSIPENTNFPAGIEPQSNYIPETPPPGYISEDGETSDQQLNQSMDTGSPAELSPTTLSPVNHSLDLQPVTYSEPAFWCSIAYYELNQRVGETFHASQPSLTVDGFTDPSNSERFCLGLLSNVNRNATVEMTRRHIGRGVRLYYIGGEVFAECLSDSAIFVQSPNCNQRYGWHPATVCKIPPGCNLKIFNNQEFAALLAQSVNQGFEAVYQLTRMCTIRMSFVKGWGAKYRRQTVTSTPCWIELHLNGPLQWLDKVLTQMGSPSVRCSSMS
modifications: left off: His6, N-terminal, state not stated
Kd [1, 3]: 70 ± 7 nM
PI(4,5)P2 selectivity over POPC/POPS (80:20) ([1]; SPR, RU/RUmax, 100 nM protein): retaining the PI(4,5)P2 selectivity of WT
binding to POPC/POPS/PI(4,5)P2 (77:20:3) ([1]; SPR, RU/RUmax, 100 nM protein): modestly higher membrane binding than WT
higher affinity for POPC/POPS/PI(4,5)P2 (77:20:3) than WT ([1]; SPR, increase in affinity vs WT): ~40%
Smad2 transcriptional activity after TGF-β stimulation [2]: higher transcriptional activity than exogeneous Smad2 WT

B2: Smad2 WT: bacterially expressed full-length Smad2 wild-type (protein)
chain: B1 chain with K425E
modifications: left off: His6, N-terminal, state not stated
notes: bacterially expressed full-length Smad2 wild-type
RUmax ([1]; POPC/POPS/PI(4,5)P2 (77:20:3), 1 μM Smad2): 280 ± 20
affinity for PI(4,5)P2-containing vesicles relative to PI(3)P-containing ones ([1]; SPR, Kd comparison): twofold higher affinity
increase in membrane affinity by 3 mol% PI(4,5)P2 over POPC/POPS (80:20) vesicles ([1]; SPR, Kd comparison): 5.6 fold
Kd [1, 3]: 100 ± 20 nM
PI(4,5)P2 concentration dependence of membrane binding ([1]; SPR, POPC/POPS/PI(4,5)P2 (77-x:20:x, x = 0–5 mol%), 100 nM protein): dependent on the PI(4,5)P2 concentration
TGF-β-induced Smad2 transcriptional activity after PI(4,5)P2 depletion ([2]; HeLa cells, PI(4,5)P2 depletion): abrogated TGF-β-induced Smad2 transcriptional activity
Smad2 transcriptional activity after TGF-β stimulation [2]: fully restored Smad2 transcriptional activity
